Blank lines part the entries; values can stand above or below the binder they belong to.
Assays:
CD96 [1] = molecular target: T1, CD96 (UniProt P40200); assay: flow cytometry, cells
T1 sequence (looked up): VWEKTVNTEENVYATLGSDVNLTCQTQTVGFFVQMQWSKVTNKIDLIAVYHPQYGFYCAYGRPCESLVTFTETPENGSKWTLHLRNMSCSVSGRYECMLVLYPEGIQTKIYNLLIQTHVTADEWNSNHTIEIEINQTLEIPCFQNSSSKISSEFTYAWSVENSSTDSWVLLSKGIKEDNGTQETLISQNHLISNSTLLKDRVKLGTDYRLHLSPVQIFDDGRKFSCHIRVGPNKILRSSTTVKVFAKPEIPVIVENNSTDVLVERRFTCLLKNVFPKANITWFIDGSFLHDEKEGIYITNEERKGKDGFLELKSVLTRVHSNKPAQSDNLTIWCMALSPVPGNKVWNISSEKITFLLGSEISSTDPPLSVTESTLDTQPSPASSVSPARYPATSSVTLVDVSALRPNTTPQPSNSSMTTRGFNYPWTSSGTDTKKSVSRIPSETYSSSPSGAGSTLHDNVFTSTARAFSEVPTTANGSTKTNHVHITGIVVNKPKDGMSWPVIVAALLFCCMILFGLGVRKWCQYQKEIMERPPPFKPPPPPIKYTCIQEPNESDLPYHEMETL

CD226 (human) [2] = molecular target: T2, CD226 (human) (UniProt Q15762); assay: flow cytometry, transfected cells
T2 sequence: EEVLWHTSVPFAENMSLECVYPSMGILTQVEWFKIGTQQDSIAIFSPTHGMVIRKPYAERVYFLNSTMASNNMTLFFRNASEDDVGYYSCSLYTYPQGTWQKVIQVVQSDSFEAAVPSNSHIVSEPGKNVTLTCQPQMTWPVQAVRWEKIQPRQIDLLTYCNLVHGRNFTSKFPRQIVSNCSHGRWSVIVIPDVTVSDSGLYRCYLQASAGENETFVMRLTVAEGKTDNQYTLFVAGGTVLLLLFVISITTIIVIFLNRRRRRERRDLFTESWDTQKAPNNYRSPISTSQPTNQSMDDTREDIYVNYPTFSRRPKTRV

CD226 (human) [3] = molecular target: T2, CD226 (human); assay: flow cytometry, cells expressing target, 25 nM
CD96 [4] = molecular target: T1, CD96; assay: flow cytometry, cells expressing target, 25 nM
CD112R (human) = CD112R (human) (UniProt Q6DKI7); assay: flow cytometry, cells expressing target, 25 nM
TIGIT (human) = molecular target: T3, TIGIT (human) (UniProt Q495A1); assay: flow cytometry, cells expressing target, 25 nM
T3 sequence: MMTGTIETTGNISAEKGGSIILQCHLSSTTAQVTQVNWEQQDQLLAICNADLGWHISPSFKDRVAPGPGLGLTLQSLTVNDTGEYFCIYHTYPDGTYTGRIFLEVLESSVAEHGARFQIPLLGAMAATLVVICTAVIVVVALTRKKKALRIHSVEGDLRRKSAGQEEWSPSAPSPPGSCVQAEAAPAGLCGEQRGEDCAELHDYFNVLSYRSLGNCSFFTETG

CD226 (human) [5] = molecular target: T2, CD226 (human); assay: flow cytometry, CD226-expressing cells
CD96 [6] = molecular target: T1, CD96; assay: flow cytometry, CD96-expressing cells
[7] = molecular target: human CD28, full-length, expressed on transfected Expi293 cells (human) (UniProt P10747); assay: flow cytometry on CD28-expressing Expi293 cells

CD112R (human), sequence (Q6DKI7 whole entry): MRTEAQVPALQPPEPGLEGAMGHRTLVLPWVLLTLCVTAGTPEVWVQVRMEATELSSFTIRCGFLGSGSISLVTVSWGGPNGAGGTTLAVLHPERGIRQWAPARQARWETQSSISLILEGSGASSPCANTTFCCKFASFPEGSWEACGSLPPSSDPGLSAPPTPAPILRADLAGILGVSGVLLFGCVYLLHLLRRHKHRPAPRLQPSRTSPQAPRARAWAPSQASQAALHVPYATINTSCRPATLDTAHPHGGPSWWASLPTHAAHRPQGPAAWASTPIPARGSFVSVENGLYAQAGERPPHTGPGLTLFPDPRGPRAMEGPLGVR

MFI (CD96 [1]): 22700
MFI (CD226 (human) [2]): 38500
B1: CD155 P18T, F91S, V115A IgV-Fc (Fc fusion, not shown: a dimerising Fc or GST; small tags and cut ends)
chain: PGTGDVVVQAPTQVTGFLGDSVTLPCYLQVPNMEVTHVSQLTWARHGESGSMAVFHQTQGPSYSESKRLEFVAARLGAELRNASLRMSGLRVEDEGNYTCLFVTFPQGSRSADIWL

MFI (CD96 [1]): 193000
MFI (CD226 (human) [2]): 395000
B2: CD155 P18T, F91S, F108L IgV-Fc (Fc fusion, not shown: a dimerising Fc or GST; small tags and cut ends)
chain: PGTGDVVVQAPTQVTGFLGDSVTLPCYLQVPNMEVTHVSQLTWARHGESGSMAVFHQTQGPSYSESKRLEFVAARLGAELRNASLRMSGLRVEDEGNYTCLFVTLPQGSRSVDIWL

MFI (CD96 [1]): 35300
MFI (CD226 (human) [2]): 65100
B3: CD155 L88P IgV-Fc (Fc fusion, not shown: a dimerising Fc or GST; small tags and cut ends)
chain: PGTGDVVVQAPTQVPGFLGDSVTLPCYLQVPNMEVTHVSQLTWARHGESGSMAVFHQTQGPSYSESKRLEFVAARLGAELRNASPRMFGLRVEDEGNYTCLFVTFPQGSRSVDIWL

MFI (CD96 [1]): 11700
MFI (CD226 (human) [2]): 18900
B4: CD155 R94H IgV-Fc (Fc fusion, not shown: a dimerising Fc or GST; small tags and cut ends)
chain: PGTGDVVVQAPTQVPGFLGDSVTLPCYLQVPNMEVTHVSQLTWARHGESGSMAVFHQTQGPSYSESKRLEFVAARLGAELRNASLRMFGLHVEDEGNYTCLFVTFPQGSRSVDIWL

MFI at 25 nM (CD226 (human) [3]): 154000 MFI
MFI at 25 nM (CD96 [4]): 85600 MFI
MFI at 25 nM (CD112R (human)): 812 MFI
MFI at 25 nM (TIGIT (human)): 130000 MFI
B5: CD155 variant IgV-Fc V9L, P18F, T45A, S65A, S67V, R78K, L79V, F91S, T107M, S114T (Fc fusion, not shown: a dimerising Fc or GST; small tags and cut ends)
chain: PGTGDLVVQAPTQVFGFLGDSVTLPCYLQVPNMEVTHVSQLAWARHGESGSMAVFHQTQGPAYVESKRLEFVAAKVGAELRNASLRMSGLRVEDEGNYTCLFVMFPQGSRTVDIWL

MFI at 25 nM (CD226 (human) [3]): 2090 MFI
MFI at 25 nM (CD112R (human)): 1060 MFI
MFI at 25 nM (TIGIT (human)): 16200 MFI
B6: CD155 variant IgV-Fc T15S, P18S, Y30H, Q32L, Q62R, L79P, F91S, T107M (Fc fusion, not shown: a dimerising Fc or GST; small tags and cut ends)
chain: PGTGDVVVQAPSQVSGFLGDSVTLPCHLLVPNMEVTHVSQLTWARHGESGSMAVFHQTRGPSYSESKRLEFVAARPGAELRNASLRMSGLRVEDEGNYTCLFVMFPQGSRSVDIWL

Fold Change from CD155-ECD (CD226 (human) [5]): 0.07 fold
MFI at 11.1 nM (CD226 (human) [5]): 1120 MFI
Fold Change from CD155-ECD (CD96 [6]): 0.06 fold
MFI at 11.1 nM (CD96 [6]): 973 MFI
B7: CD155 variant IgV-Fc P18L, K70E, L79P, F91S, V95A, G111R (Fc fusion, not shown: a dimerising Fc or GST; small tags and cut ends)
chain: WPPPGTGDVVVQAPTQVLGFLGDSVTLPCYLQVPNMEVTHVSQLTWARHGESGSMAVFHQTQGPSYSESERLEFVAARPGAELRNASLRMSGLRAEDEGNYTCLFVTFPQRSRSVDIWL

Fold Change from CD155-ECD (CD226 (human) [5]): 0.06 fold
MFI at 11.1 nM (CD226 (human) [5]): 973 MFI
Fold Change from CD155-ECD (CD96 [6]): 0.06 fold
MFI at 11.1 nM (CD96 [6]): 974 MFI
B8: CD155 variant IgV-Fc V9I, V10I, P18S, F20S, T45A, L79P, F91S, L104M, F108Y, G111R, S112V (Fc fusion, not shown: a dimerising Fc or GST; small tags and cut ends)
chain: WPPPGTGDIIVQAPTQVSGSLGDSVTLPCYLQVPNMEVTHVSQLAWARHGESGSMAVFHQTQGPSYSESKRLEFVAARPGAELRNASLRMSGLRVEDEGNYTCMFVTYPQRVRSVDIWL

MFI [7]: 16 MFI
B9: ICOSL variant F120S/Y152H/N201S ECD-Fc fusion (Fc fusion, not shown: a dimerising Fc or GST; small tags and cut ends)
chain: DTQEKEVRAMVGSDVELSCACPEGSRFDLNDVYVYWQTSESKTVVTYHIPQNSSLENVDSRYRNRALMSPAGMLRGDFSLRLFNVTPQDEQKFHCLVLSQSLGFQEVLSVEVTLHVAANSSVPVVSAPHSPSQDELTFTCTSINGYPRPNVHWINKTDNSLLDQALQNDTVFLNMRGLYDVVSVLRIARTPSVNIGCCIESVLLQQNLTVGSQTGNDIGERDKITENPVSTGEKNAAT

MFI at 11.1 nM (CD226 (human) [5]): 986 MFI
MFI at 11.1 nM (CD96 [6]): 959 MFI
B10: CD155 variant IgV-Fc V9L, P18S, Q60R, V75L, L79P, R89K, F91S, L104E, G111R (Fc fusion, not shown: a dimerising Fc or GST; small tags and cut ends)
chain: PGTGDLVVQAPTQVSGFLGDSVTLPCYLQVPNMEVTHVSQLTWARHGESGSMAVFHRTQGPSYSESKRLEFLAARPGAELRNASLKMSGLRVEDEGNYTCEFVTFPQRSRSVDIWL

MFI at 25 nM (CD96 [4]): 3790 MFI
MFI at 25 nM (CD112R (human)): 908 MFI
MFI at 25 nM (TIGIT (human)): 187000 MFI
B11: CD155 variant IgV-Fc P18T, S52A, V57A, Q60R, Q62K, S65C, L79P, F91T, N100Y, T107M (Fc fusion, not shown: a dimerising Fc or GST; large carriers; small tags and cut ends)
chain: PGTGDVVVQAPTQVTGFLGDSVTLPCYLQVPNMEVTHVSQLTWARHGEAGSMAAFHRTKGPCYSESKRLEFVAARPGAELRNASLRMTGLRVEDEGYYTCLFVMFPQGSRSVDIWL

From US20200040059A1
